Where no end group is shown, it is not given here. The star is where a group is joined. Dansyl = CN(C)c1cccc2c(S(=O)(=O)*)cccc12

This is an account of results in paper PMC3678169 (The Journal of Cell Biology, 2013).

B3: GST-p67 fusion (natural protein, human, UniProt P19878 1-526, looked up)
chain: MSLVEAISLWNEGVLAADKKDWKGALDAFSAVQDPHSRICFNIGCMYTILKNMTEAEKAFTRSINRDKHLAVAYFQRGMLYYQTEKYDLAIKDLKEALIQLRGNQLIDYKILGLQFKLFACEVLYNIAFMYAKKEEWKKAEEQLALATSMKSEPRHSKIDKAMECVWKQKLYEPVVIPVGKLFRPNERQVAQLAKKDYLGKATVVASVVDQDSFSGFAPLQPQAAEPPPRPKTPEIFRALEGEAHRVLFGFVPETKEELQVMPGNIVFVLKKGNDNWATVMFNGQKGLVPCNYLEPVELRIHPQQQPQEESSPQSDIPAPPSSKAPGRPQLSPGQKQKEEPKEVKLSVPMPYTLKVHYKYTVVMKTQPGLPYSQVRDMVSKKLELRLEHTKLSYRPRDSNELVPLSEDSMKDAWGQVKNYCLTLWCENTVGDQGFPDEPKESEKADANNQTTEPQLKKGSQVEALFSYEATQPEDLEFQEGDIILVLSKVNEEWLEGECKGKVGIFPKVFVEDCATTDLESTRREV

Assay [1] deals with 15N-labeled Tiam1 PDZ domain (human, UniProt Q13009 841-930). The assay is described as follows: NMR titration.
15N-labeled Tiam1 PDZ domain, sequence (Q13009 841-930): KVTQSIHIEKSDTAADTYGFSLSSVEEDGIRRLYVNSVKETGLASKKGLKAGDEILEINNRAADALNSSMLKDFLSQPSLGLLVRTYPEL
The assay “GST-p67 fusion” deals with B3. The assay is described as follows: pull-down.
In assay [2] the target is His-tagged Tiam1 PHn-PHc (423–1406) (human, UniProt Q13009 423-1406). The assay is described as follows: pull-down.
His-tagged Tiam1 PHn-PHc (423–1406), sequence (Q13009 423-1406): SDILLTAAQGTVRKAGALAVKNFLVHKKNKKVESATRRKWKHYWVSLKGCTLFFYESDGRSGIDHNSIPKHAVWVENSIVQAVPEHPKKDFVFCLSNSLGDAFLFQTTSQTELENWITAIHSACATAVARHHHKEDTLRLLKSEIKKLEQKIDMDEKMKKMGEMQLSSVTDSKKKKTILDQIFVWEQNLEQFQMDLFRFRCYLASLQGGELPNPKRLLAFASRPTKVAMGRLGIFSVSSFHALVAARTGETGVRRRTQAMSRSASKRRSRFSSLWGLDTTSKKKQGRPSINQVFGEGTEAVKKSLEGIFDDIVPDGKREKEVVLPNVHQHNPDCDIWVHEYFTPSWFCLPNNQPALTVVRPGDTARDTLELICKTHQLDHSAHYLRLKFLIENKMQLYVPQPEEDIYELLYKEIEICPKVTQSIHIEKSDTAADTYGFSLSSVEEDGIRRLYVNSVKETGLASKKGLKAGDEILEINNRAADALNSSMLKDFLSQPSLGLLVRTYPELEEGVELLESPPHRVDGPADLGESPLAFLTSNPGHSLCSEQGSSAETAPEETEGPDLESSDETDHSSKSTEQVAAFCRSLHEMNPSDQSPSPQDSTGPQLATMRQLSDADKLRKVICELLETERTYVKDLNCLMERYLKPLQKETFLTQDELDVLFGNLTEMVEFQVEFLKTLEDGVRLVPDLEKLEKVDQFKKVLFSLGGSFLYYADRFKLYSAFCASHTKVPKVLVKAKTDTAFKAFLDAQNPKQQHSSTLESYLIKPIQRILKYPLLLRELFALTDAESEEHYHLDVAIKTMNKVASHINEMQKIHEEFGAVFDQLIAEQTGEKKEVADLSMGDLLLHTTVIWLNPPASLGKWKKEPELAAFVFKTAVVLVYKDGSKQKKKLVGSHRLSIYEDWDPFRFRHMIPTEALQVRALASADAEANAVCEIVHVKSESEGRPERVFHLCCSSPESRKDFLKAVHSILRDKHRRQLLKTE

B1: human VE-cadherin peptide (654–669; MLAELYGSDPREELLY) (peptide)
peptide: Dansyl-MLAELYGSDPREELLY
For the molecule B1, binding in assay [1] was characterised by a dissociation constant (Kd) of 980 ± 150 µM.

B2: His-tagged Tiam1 PHn-CC-Ex domain (429–702) (domain or fragment, human, UniProt Q13009 429-702, looked up)
chain: AAQGTVRKAGALAVKNFLVHKKNKKVESATRRKWKHYWVSLKGCTLFFYESDGRSGIDHNSIPKHAVWVENSIVQAVPEHPKKDFVFCLSNSLGDAFLFQTTSQTELENWITAIHSACATAVARHHHKEDTLRLLKSEIKKLEQKIDMDEKMKKMGEMQLSSVTDSKKKKTILDQIFVWEQNLEQFQMDLFRFRCYLASLQGGELPNPKRLLAFASRPTKVAMGRLGIFSVSSFHALVAARTGETGVRRRTQAMSRSASKRRSRFSSLWGLDTT
In the case of B2, the binding result with GST-p67 fusion was “binds”.

Regarding B3, the binding result in assay [2] is “binds”.
